Experimental data from article PMC11352701.

Target: dFMRP (dFmr1-PD) (UniProt Q9NFU0 1-684)
Experiment: EMSA

Chain of dFMRP (dFmr1-PD) (Q9NFU0 whole entry): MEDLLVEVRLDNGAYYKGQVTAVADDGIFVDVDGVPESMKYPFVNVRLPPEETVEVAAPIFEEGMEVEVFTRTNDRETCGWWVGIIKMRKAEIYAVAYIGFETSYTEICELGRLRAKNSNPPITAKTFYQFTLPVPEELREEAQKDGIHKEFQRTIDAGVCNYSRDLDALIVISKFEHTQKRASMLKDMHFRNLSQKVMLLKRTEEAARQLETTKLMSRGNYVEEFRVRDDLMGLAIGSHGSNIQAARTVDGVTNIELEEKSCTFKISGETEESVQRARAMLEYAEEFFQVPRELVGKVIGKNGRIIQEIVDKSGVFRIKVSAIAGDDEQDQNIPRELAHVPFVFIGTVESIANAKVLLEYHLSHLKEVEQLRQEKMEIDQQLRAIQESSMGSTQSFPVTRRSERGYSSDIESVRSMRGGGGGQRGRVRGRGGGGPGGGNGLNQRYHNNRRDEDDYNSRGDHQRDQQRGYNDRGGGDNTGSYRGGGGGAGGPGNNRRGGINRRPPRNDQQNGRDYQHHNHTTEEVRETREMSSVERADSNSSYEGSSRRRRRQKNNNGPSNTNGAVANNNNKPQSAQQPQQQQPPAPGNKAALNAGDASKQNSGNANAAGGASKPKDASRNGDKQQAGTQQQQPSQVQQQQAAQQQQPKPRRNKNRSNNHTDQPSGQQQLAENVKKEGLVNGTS

## AAAAAAAAAAAAAA (ssRNA) [A14 control RNA]
  binding result: no binding
